In patent US20250090699A1, “FAP TARGETING CYCLIC PEPTIDES AND CONJUGATES THEREOF” (Novartis AG, priority 2023, published 2025):
Structures can show the parent of a compound that is named as a salt. Starred links: 1 amine or outer side, 2 acyl side, 3 side chain; linkers in the order of their positions; H or OH if unused. Non-standard residues stand in square brackets, D forms with d. Residues, ends and D or L forms follow the SMILES beside them. Primed or numbered codes have the meaning given here. *: point of attachment. F(4amPEG2NH-NOTA-AlF) = aluminum [18F]fluoride complex of (S)-2,2'-(7-(1-(4-(2-amino-2-carboxyethyl)phenyl)-3,12-dioxo-5,8-dioxa-2,11-diazatridecan-13-yl)-1,4,7-triazonane-1,4-diyl)diacetic acid (Phe with 4-aminomethyl-PEG2-NOTA-Al18F), O=C([O-])CN1CCN(CC(=O)[O-])CCN(CC(=O)NCCOCCOCC(=O)NCc2ccc(C[C@H](N[*:1])C(=O)[*:2])cc2)CC1.[18F][Al+2]; F(4OEtNHDOTA-Ga) = gallium complex of (S)-2,2',2''-(10-(2-((2-(4-(2-amino-2-carboxyethyl)phenoxy)ethyl)amino)-2-oxoethyl)-1,4,7,10-tetraazacyclododecane-1,4,7-triyl)triacetic acid (Phe with 4-O-ethylamino-DOTA-Ga), O=C([O-])CN1CCN(CC(=O)[O-])CCN(CC(=O)NCCOc2ccc(C[C@H](N[*:1])C(=O)[*:2])cc2)CCN(CC(=O)[O-])CC1.[Ga+3]; F(4amPEG2NH-NOTA-Ga) = gallium complex of (S)-2,2'-(7-(1-(4-(2-amino-2-carboxyethyl)phenyl)-3,12-dioxo-5,8-dioxa-2,11-diazatridecan-13-yl)-1,4,7-triazonane-1,4-diyl)diacetic acid (Phe with 4-aminomethyl-PEG2-NOTA-Ga), O=C([O-])CN1CCN(CC(=O)[O-])CCN(CC(=O)NCCOCCOCC(=O)NCc2ccc(C[C@H](N[*:1])C(=O)[*:2])cc2)CC1.[Ga+3]; COpipzaa = 4-(carboxymethyl)piperazine-1-carbonyl, O=C(O)CN1CCN(C(=O)*)CC1; F(4amPEG2NHRDOTAGA-Ga) = Phe with 4-aminomethyl-PEG2-NH-DOTAGA, Ga complex; F(4amPEG2NHDOTA-Ga)″ = Phe with 4-aminomethyl-PEG2-NH-DOTA, Ga complex; hS(Pr) = O-propyl-L-homoserine, CCCOCC[C@H](N[*:1])C(=O)[*:2]; NMeAla(cPent) = CN[C@@H](CC1CCCC1)C(=O)O; NMeF = CN[C@@H](Cc1ccccc1)C(=O)O; Ahp(2) = CCCCC[C@H](N)C(=O)O; Sar = CNCC(=O)O

Columns and labels:
[1] = target: T1, mouse FAP (Mus musculus, UniProt P97321); experiment: Enzymatic FAP competition assay (Z-Gly-Pro-AMC fluorescence), mouse FAP; format: biochemical; details: read-out: m. FAP, Enz., IC50
T1 construct: biotinylated His, Avi tag, mouse FAP (26-761, FAP-M82Q5); His; Avi tag (biotinylated); purchased AcroBiosystems FAP-M82Q5
T1 sequence (P97321 26-761): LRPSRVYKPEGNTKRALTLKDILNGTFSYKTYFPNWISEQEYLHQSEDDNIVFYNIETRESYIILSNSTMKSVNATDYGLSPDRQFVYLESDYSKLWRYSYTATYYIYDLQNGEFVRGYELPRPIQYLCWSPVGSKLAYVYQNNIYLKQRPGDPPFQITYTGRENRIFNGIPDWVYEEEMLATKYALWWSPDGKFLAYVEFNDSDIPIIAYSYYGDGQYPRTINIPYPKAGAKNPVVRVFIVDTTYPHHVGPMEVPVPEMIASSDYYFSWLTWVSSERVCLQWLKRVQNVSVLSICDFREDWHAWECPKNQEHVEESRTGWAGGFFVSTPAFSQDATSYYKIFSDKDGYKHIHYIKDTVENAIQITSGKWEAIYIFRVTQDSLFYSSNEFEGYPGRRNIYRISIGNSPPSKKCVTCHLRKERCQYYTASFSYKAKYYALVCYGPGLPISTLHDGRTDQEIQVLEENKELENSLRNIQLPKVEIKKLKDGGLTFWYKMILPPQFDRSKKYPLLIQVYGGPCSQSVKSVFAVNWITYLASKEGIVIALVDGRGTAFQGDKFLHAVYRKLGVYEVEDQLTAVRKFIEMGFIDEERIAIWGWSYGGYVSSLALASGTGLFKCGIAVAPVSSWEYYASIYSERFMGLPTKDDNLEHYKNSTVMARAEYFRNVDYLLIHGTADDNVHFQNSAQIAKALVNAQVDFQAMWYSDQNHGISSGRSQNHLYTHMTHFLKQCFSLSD
How it was run: (§1)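 IC50 values come from curve fitting of duplicate % inhibition data on AMC fluorescence (ex 380, em 460 nm) after 4 h at 22-24° C with 50 μM Z-Gly-Pro-AMC. Beforehand, peptides up to 1 μM (14 levels) sat 24 h with 0.01 nM human (26-760) or mouse (26-761) tagged FAP in phosphate buffer pH 7.5, NaCl, Tween20, 1% DMSO.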

[2] = target: T1, mouse FAP; experiment: Surface plasmon resonance (SPR) for peptide affinity, mouse FAP; format: binding
How it was run: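 KD values come from a 1:1 kinetic fit of single-cycle SPR data: 8 peptide concentrations, 25 °C, 30 μL/min, HEPES-buffered saline pH 7.6 with 2% DMSO. Targets were His/Avi-tagged human (26-760) or mouse (26-761) FAP, amine-coupled to CM5 or held on a CAPture chip.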

[3] = target: T2, human FAP (Homo sapiens, UniProt Q12884); experiment: Enzymatic FAP competition assay (Z-Gly-Pro-AMC fluorescence), human FAP; format: biochemical; details: read-out: h. FAP, Enz., IC50
T2 construct: the biotinylated His, Avi tag, human FAP (26-760, FAP-H82Q6); His; Avi tag (biotinylated); purchased AcroBiosystems FAP-H82Q6
T2 sequence (Q12884 26-760): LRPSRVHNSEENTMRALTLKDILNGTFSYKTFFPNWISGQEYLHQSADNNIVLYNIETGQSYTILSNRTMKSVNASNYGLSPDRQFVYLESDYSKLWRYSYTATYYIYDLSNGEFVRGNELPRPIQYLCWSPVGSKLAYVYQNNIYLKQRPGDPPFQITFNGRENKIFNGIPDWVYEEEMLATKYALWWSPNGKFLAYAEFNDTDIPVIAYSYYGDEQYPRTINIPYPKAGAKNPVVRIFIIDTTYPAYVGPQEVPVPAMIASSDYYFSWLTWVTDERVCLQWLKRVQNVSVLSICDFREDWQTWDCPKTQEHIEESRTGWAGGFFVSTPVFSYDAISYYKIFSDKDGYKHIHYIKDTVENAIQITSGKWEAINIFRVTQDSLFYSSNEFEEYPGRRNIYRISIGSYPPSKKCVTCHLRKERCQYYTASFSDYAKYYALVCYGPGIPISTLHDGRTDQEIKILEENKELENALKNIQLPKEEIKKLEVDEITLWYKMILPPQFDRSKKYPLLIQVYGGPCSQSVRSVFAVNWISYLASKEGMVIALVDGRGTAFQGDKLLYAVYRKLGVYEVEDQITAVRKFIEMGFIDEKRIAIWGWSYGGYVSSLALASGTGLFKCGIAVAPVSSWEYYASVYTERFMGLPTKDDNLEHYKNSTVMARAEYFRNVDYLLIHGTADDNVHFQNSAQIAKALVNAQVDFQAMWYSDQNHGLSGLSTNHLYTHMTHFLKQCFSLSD
How it was run: as §1

Molecule	IC50 [1]	Kd [2]	IC50 [3]
Gly-Gly-NMePhe-F(4amPEG2NH-NOTA-Ga)-hS(Pr)-Trp-Gly-K(COpipzaa)-Asp-D-Pro (cyclo(GG[NMeF][F(4amPEG2NH-NOTA-Ga)][hS(Pr)]WGK(COpipzaa)D[dP]); also: Ga complex) [Example C41]	0.031 nM	< 0.043 nM	0.013 nM
Gly-Gly-NMePhe-F(4amPEG2NHRDOTAGA-Ga)-hS(Pr)-Trp-Gly-K(COpipzaa)-AsI-D-Pro (cyclo(GG[NMeF][F(4amPEG2NHRDOTAGA-Ga)][hS(Pr)]WGK(COpipzaa)D[dP]); also: Ga complex) [Example C39]	0.051 nM	< 0.024 nM	0.015 nM
CCCCC[C@@H]1NC(=O)[C@H](Cc2ccc(O)cc2)NC(=O)[C@H](Cc2ccccc2)NC(=O)CNC(=O)[C@H](CCCCN)NC(=O)[C@H]2CCCN2C(=O)[C@H](CC(=O)O)NC(=O)[C@H](Cc2ccc(O)cc2)NC(=O)CNC(=O)[C@H](Cc2c[nH]c3ccccc23)NC1=O [Example A22, Lys-Gly-Phe-Tyr-Ahp-Trp-Gly-Tyr-Asp-D-Pro, TFA salt] (cyclo([Ahp(2)]WGYD[dP]KGFY))	0.67 nM	0.87 nM	0.33 nM
Gly-Gly-NMePhe-F(4OEtNHDOTA-Ga)-Ahp-Trp-Gly-Tyr-Asp-D-Pro (cyclo(GG[NMeF][F(4OEtNHDOTA-Ga)][Ahp(2)]WGYD[dP]); also: Ga complex of DOTA) [Example C51]	0.058 nM	0.026 nM	0.03 nM

More lines, now with the values ahead:

IC50 [1]	Kd [2]	IC50 [3]	Molecule
0.019 nM	< 0.041 nM	0.007 nM	Gly-Gly-NMe3PyA-F(4amPEG2NHDOTA-Lu)-hS(Pr)-W7N-Gly-K(COpipzaa)-Asp-D-Pro [Example C3]
2.5 nM	2.7 nM	0.54 nM	CCCCC[C@@H]1NC(=O)[C@H](Cc2ccc(O)cc2)NC(=O)[C@H](CC2CCCC2)N(C)C(=O)CNC(=O)[C@H](CCCCN)NC(=O)[C@H]2CCCN2C(=O)[C@H](CC(=O)O)NC(=O)[C@H](Cc2ccc(O)cc2)NC(=O)CNC(=O)[C@H](Cc2c[nH]c3ccccc23)NC1=O [Example A44, Lys-Gly-NMecPenA-Tyr-Ahp-Trp-Gly-Tyr-Asp-D-Pro, TFA salt] (cyclo([Ahp(2)]WGYD[dP]KG[NMeAla(cPent)]Y))
80 nM	35 nM	12 nM	CCCCC[C@@H]1NC(=O)[C@H](Cc2ccc(O)cc2)NC(=O)[C@H](Cc2ccccc2)N(C)C(=O)CNC(=O)CNC(=O)CN(C)C(=O)[C@H](CC(=O)O)NC(=O)[C@H](Cc2ccc(O)cc2)NC(=O)CNC(=O)[C@H](Cc2c[nH]c3ccccc23)NC1=O [Example A68, Gly-Gly-NMePhe-Tyr-Ahp-Trp-Gly-Tyr-Asp-NMeGly] (cyclo([Ahp(2)]WGYD[Sar]GG[NMeF]Y))
0.035 nM	< 0.035 nM	0.013 nM	Gly-Gly-NMePhe-F(4amPEG2NH-NOTA-AlF)-hS(Pr)-Trp-Gly-K(COpipzaa)-Asp-D-Pro (cyclo(GG[NMeF][F(4amPEG2NH-NOTA-AlF)][hS(Pr)]WGK(COpipzaa)D[dP]); also: Al[18F]F complex) [Example C53]
0.032 nM	< 0.016 nM	0.012 nM	Gly-Gly-NMePhe-F(4amPeG2NHDOTA-Ga)-Ahp-Trp-Gly-K(COpipzaa)-asp-D-Pro (cyclo(GG[NMeF][F(4amPEG2NHDOTA-Ga)″][Ahp(2)]WGK(COpipzaa)D[dP]); also: Ga in DOTA chelate) [Example C46]
